Test results published in publication PMC4576865 (The Journal of Cell Biology, 2015).

Molecular target: the molecule itself
Experiment: native gel or EMSA

B1: Ugo1 precursor, 35S-labeled (natural protein, S. cerevisiae, UniProt Q03327 1-502, looked up)
chain: MNNNNVTEATSRAQIRPYYDPDSFNAGYSAVFKPDEGVVDPHGYTIASKLNVINSSPTTKRMANALFKSSPMKKLSNSVNDGLSLEGSNGEITGLNNFEWAELVNIQKWRKIFEQLLDMFFRKYFQLLIQQPFDVARLLIQVGEFKIFKTTVDTNKPQAPIILRDEEGDGAAREGEEDAYDEEEIDFFPIERKIAEANSTAPIMAEETDHSHHEPTDISLTIAPQSLHTIDVINALFDQEGIRGLWKANNTTFIYNFLSLSIDTWFTGLLSSFLGVPDPYFMEVINSPDISKSFILALGAGVFTSIILLPVDLIRTRLIVTSFKKKKNVKTDGKNMVTNTRSLRQLIRCWSWRKNGVSIPLDMWSLTILQSINNSFFNKLFDLVIYNQFHIEKYSQTVMYNTMKFFSKSLELFIKLPLENLLRRCQLNYLLNDQRLSFKVDSTELIVKPKKYNGIWDVIRNNSNTNRGQLWNGWKVGVISLICGYGLQMMNKVDINMEQEKF
modifications: [35S]methionine
  stoichiometry N: 2
